The supplement of paper PMC9233669
Fewer inactive variants are shown than the library holds.

How the values were obtained:
biotinyl-Met-oxazolone = assay: self-aminoacylation, catalytic enhancement (BMO) (fold over background); higher = more active; k-Seq, kA / k0A0; sequences stand for … in GGGAAUGGAUCCACAUCUACGAAUUC…UUCACUGCAGACUUGACGAAGCUG
Outline: (§1)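 The uncatalyzed rate is the low-activity peak of a bimodal Gaussian fit, and catalytic enhancement is median kA divided by it. The kA values came from pseudo-first-order fits, with 1000 bootstraps, of per-sequence fraction reacted measured by streptavidin capture, triplicate qPCR and Illumina sequencing. Mutagenized RNA pools with a 21-nt variable region (0.43 μM) were reacted with each biotinyl-aminoacyl-oxazolone at 2–1250 μM in 50 μL HEPES/NaCl/KCl/MgCl2/CaCl2 buffer with 5% acetonitrile, pH 6.9–7.0, for 90 minutes at room temperature.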

biotinyl-Trp-oxazolone = assay: self-aminoacylation, catalytic enhancement (BWO) (fold over background); higher = more active; k-Seq, kA / k0A0; sequences stand for … in GGGAAUGGAUCCACAUCUACGAAUUC…UUCACUGCAGACUUGACGAAGCUG
Outline: as §1

biotinyl-Leu-oxazolone = assay: self-aminoacylation, catalytic enhancement (BLO) (fold over background); higher = more active; k-Seq, kA / k0A0; sequences stand for … in GGGAAUGGAUCCACAUCUACGAAUUC…UUCACUGCAGACUUGACGAAGCUG
Outline: as §1

biotinyl-Phe-oxazolone = assay: self-aminoacylation, catalytic enhancement (BFO) (fold over background); higher = more active; k-Seq, kA / k0A0; sequences stand for … in GGGAAUGGAUCCACAUCUACGAAUUC…UUCACUGCAGACUUGACGAAGCUG
Outline: as §1

biotinyl-Ile-oxazolone = assay: self-aminoacylation, catalytic enhancement (BIO) (fold over background); higher = more active; k-Seq, kA / k0A0; sequences stand for … in GGGAAUGGAUCCACAUCUACGAAUUC…UUCACUGCAGACUUGACGAAGCUG
Outline: as §1

biotinyl-Val-oxazolone = assay: self-aminoacylation, catalytic enhancement (BVO) (fold over background); higher = more active; k-Seq, kA / k0A0; sequences stand for … in GGGAAUGGAUCCACAUCUACGAAUUC…UUCACUGCAGACUUGACGAAGCUG
Outline: as §1

Sequence	self-aminoacylation (biotinyl-Met-oxazolone)	self-aminoacylation (biotinyl-Trp-oxazolone)	self-aminoacylation (biotinyl-Leu-oxazolone)	self-aminoacylation (biotinyl-Phe-oxazolone)	self-aminoacylation (biotinyl-Ile-oxazolone)	self-aminoacylation (biotinyl-Val-oxazolone)
CUGCUUCAAACAAUCGGUGUG [Fam1A.1 aminoacylation ribozyme variant]	2.12	49.6	3.16	124		
AUUACCCUGGUCCUGGAGUGA [Fam2.1 aminoacylation ribozyme variant]	3.13	3.33	2.79	10.7	2.07	
CUACUGCAAACAUUCGGUCUG [Fam1A.1 aminoacylation ribozyme variant]				9.39	2.01	
AUUACCCUGCUCUUCGAGUGA [Fam2.1 aminoacylation ribozyme variant]	2.02	2.72	2.36	2.38		
AAGUUGGCUAAAAGUCGCAAG [Fam3.1 aminoacylation ribozyme variant]				3.1	2.01	
CCACAAUUCACGCAAUCGGUC [Fam1B.1 aminoacylation ribozyme variant]						2.05
AUUCACCAAGGUCAUAGGGUG [Fam2.2 aminoacylation ribozyme variant]	2.48	2.2	4.37	9.85		
AUUCACCUAUGUCAUGGGGUG [Fam2.2 aminoacylation ribozyme variant]	2.89	2.69	3.16	14.1		2.07
AACUUAGCUAAUAGUCGCAAG [Fam3.1 aminoacylation ribozyme variant]	2.42		3.27	2.75	2.2	
AUUCACCUACGUCAACGGGUG [Fam2.2 aminoacylation ribozyme variant]	2.35	2.84	3.09	9.97		
CCACAAUUCAAGCAAUCGGGC [Fam1B.1 aminoacylation ribozyme variant]	2.14	2.04			2.22	
AUUACCGUGCUCAUCGAGUGA [Fam2.1 aminoacylation ribozyme variant]	2.12	3.33	2.64	2.01		
AUUCACCUACGUCAUCGGGGG [Fam2.2 aminoacylation ribozyme variant]			2.68	6.05		2.01
AAGUUUUCUAACAGUCGCAAG [Fam3.1 aminoacylation ribozyme variant]				3.07	2.04	
CCAGACUUCGAGCAAUCGGUC [Fam1B.1 aminoacylation ribozyme variant]						2.09
AUCACCCUGGUCAUCAAGUGA [Fam2.1 aminoacylation ribozyme variant]	3.75	4.8	3.46	14.2		2.1
AUUCAACUAGGUAAUCGGGUG [Fam2.2 aminoacylation ribozyme variant]	2.72	2.81	3.41	19		
AUACACCUAGGUCAUCGGGCG [Fam2.2 aminoacylation ribozyme variant]	2.8	2.86	2.58	11		2.18
ACGUUUGCUAAUAGUCGCCAG [Fam3.1 aminoacylation ribozyme variant]	2.26	2.59		2.03		

Sequence	self-aminoacylation (biotinyl-Met-oxazolone)	self-aminoacylation (biotinyl-Trp-oxazolone)	self-aminoacylation (biotinyl-Leu-oxazolone)	self-aminoacylation (biotinyl-Phe-oxazolone)	self-aminoacylation (biotinyl-Ile-oxazolone)	self-aminoacylation (biotinyl-Val-oxazolone)
AACUUUGCUAACAGUCGCAAG [Fam3.1 aminoacylation ribozyme variant]	2.15	2.08	3.43	2.06	2.17	
CCGCACUUCAAGCAAUCGGUU [Fam1B.1 aminoacylation ribozyme variant]		14.4	2.4	13.9		2.45
AACUUUGCUAAUAGUCGCAAC [Fam3.1 aminoacylation ribozyme variant]		2.59	2.16	4.1	2.22	
AUUACCCUGGUCAUCGAGAAA [Fam2.1 aminoacylation ribozyme variant]	2.8	2.58	2.97	5.05		
AUUACCCUGGUCGUGGAGUGA [Fam2.1 aminoacylation ribozyme variant]	2.19	2.5	2.42	12.3		
CCACACGUCAAGCAAUCGGUU [Fam1B.1 aminoacylation ribozyme variant]						2.28
AUUCAGCUACGUCAUCGGGUG [Fam2.2 aminoacylation ribozyme variant]		3.07	2.71	10.1		2.02
CCACACGUCAAGCAAUCGCUC [Fam1B.1 aminoacylation ribozyme variant]	2.64					2.54
AUUCACCUAGGUCAACGGGCG [Fam2.2 aminoacylation ribozyme variant]	2.85		3.24	10.4	2.59	
AUUCACCUAGGCCAUCGGCUG [Fam2.2 aminoacylation ribozyme variant]	2.27		2.03	10.5		2.59
CUUAGCCUGGUCAUCGAGUGA [Fam2.1 aminoacylation ribozyme variant]	2.57	2.72	3.38	2.6		
UUUCACCUAGGUCAUCGGGUC [Fam2.2 aminoacylation ribozyme variant]				2.14		2.09
AUUACCCUGGGGAUCGAGUGA [Fam2.1 aminoacylation ribozyme variant]	2.55	3.94	3.34	14.1		
CCACACUUCAAUCAAUCGGCC [Fam1B.1 aminoacylation ribozyme variant]		2.62	2.16	2.71		2.11
AAGCUUGCUAACAGUCGCAAG [Fam3.1 aminoacylation ribozyme variant]	2.4		2.5	3.33		
CCACACUUCAAGCAAUCGGCC [Fam1B.1 aminoacylation ribozyme variant]		4.72		4.93		2.17
AUUACCCUGGUACUCGAGUGA [Fam2.1 aminoacylation ribozyme variant]	2.66	3.35	2.66	10.3		
AUUAACCUAGAUCAUCGGGUG [Fam2.2 aminoacylation ribozyme variant]	2.81	2.54	2.84	14.9		
CUUCACCUAGGUCAUCGGCUG [Fam2.2 aminoacylation ribozyme variant]		2.25		9.39		2.27

Sequence	self-aminoacylation (biotinyl-Met-oxazolone)	self-aminoacylation (biotinyl-Trp-oxazolone)	self-aminoacylation (biotinyl-Leu-oxazolone)	self-aminoacylation (biotinyl-Phe-oxazolone)	self-aminoacylation (biotinyl-Ile-oxazolone)	self-aminoacylation (biotinyl-Val-oxazolone)
AUUCACCUACGUCAUCAGGUG [Fam2.2 aminoacylation ribozyme variant]	2.73	2.08	2.86	9.1		
CAACUUCAAACAAUCGGUCGG [Fam1A.1 aminoacylation ribozyme variant]	2.1	32.4	2.79	87.2		
AAAUUCGCUAAUAGUCGCAAG [Fam3.1 aminoacylation ribozyme variant]	2.31	2.09	2.19	2.65	2.89	
AAGUUUCCUAAUAGUCGCAGG [Fam3.1 aminoacylation ribozyme variant]	2.16		2.06	11.8	2.09	
AUUACCCUGGGCAUCGAGUGU [Fam2.1 aminoacylation ribozyme variant]	2.02	2.31		2.53		
AUUCACCUAGGUCAUCGGGAC [Fam2.2 aminoacylation ribozyme variant]	2.56	2.55	3	2.12		
AUUACGCUGGUCAUCAAGUGA [Fam2.1 aminoacylation ribozyme variant]	2.63	3.76	2.55	2.38		
AAGUUUGCUAAUAUUCGCGAG [Fam3.1 aminoacylation ribozyme variant]	2.02	3.31		16.5	2.04	
AACUUUGCUAAUAGUCGCAAG [Fam3.1 aminoacylation ribozyme variant]	2.2	2.41	2.46	3.71	2.22	
AUGACCCUGGUCAUCAAGUGA [Fam2.1 aminoacylation ribozyme variant]	2.4	2.06	2.28	2.74		
CCACACUUCAAGCAAGCGGUG [Fam1B.1 aminoacylation ribozyme variant]	2.45	2.4	3.19			
ACGUUUGCCAAUAGUCGCAAG [Fam3.1 aminoacylation ribozyme variant]	2.04		2.16	6.32		
CCACUCUUCAAGCAAUCGGCC [Fam1B.1 aminoacylation ribozyme variant]		4.14	2.23	4.1		2.16
AGGUCUGCUAAUAGUCGCAAG [Fam3.1 aminoacylation ribozyme variant]	2.08	9.95		37		
CCGCACUUCAAGCCAUCGGUC [Fam1B.1 aminoacylation ribozyme variant]		2.01		2.13		2.26
AUUCACCUAGGUAAUCUGGUG [Fam2.2 aminoacylation ribozyme variant]	3.3	3.62	4.66	16.9		
AUUCACGUAGGUCAUCGGGUC [Fam2.2 aminoacylation ribozyme variant]	2.19			9.36		2.28
AAUUUUGCUAAUAGUCGCAUG [Fam3.1 aminoacylation ribozyme variant]	2.28	3.4		3.03		
